T1: eTau-4 peptide
T1 construct: also called synthetic eTau4 polypeptide
T1 peptide: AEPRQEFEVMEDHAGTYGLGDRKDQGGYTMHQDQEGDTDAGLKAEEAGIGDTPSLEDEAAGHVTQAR

T2: eTau 1b
T2 construct: member of the group m9
T2 polypeptide: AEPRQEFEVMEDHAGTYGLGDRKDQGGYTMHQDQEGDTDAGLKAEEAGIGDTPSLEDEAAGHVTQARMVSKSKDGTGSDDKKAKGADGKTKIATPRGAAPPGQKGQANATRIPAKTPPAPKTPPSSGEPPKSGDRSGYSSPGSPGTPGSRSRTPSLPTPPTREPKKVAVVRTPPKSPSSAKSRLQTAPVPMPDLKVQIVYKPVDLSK

T3: eTau 2
T3 construct: member of the group m9
T3 polypeptide: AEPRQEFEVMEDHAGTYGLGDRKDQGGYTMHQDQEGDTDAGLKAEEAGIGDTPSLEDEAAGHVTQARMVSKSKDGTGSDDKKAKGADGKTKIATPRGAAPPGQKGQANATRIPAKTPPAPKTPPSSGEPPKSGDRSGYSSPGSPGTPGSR

B1: humanized IPN002 variant VH2/Vk2 (antibody, V domains shown)
VH: EVHLVESGGALVKPGGSLRLSCAASGFSFSKYGMSWVRQAPGKGLEWVATISSSGSRTYYPDSVKGRFTISRDNAKNTLYLQMNSLRAEDTAMYYCSISWDGAMDYWGQGTTVTVSS
VL: DVVMTQSPLSLPVTLGQPASISCKSSQSIVHSNGNTYLEWYLQKPGQSPQLLVYKVSNRFSGVPDRFSGSGSGTDFTLKISRVEAEDVGTYYCFQGSLVPWAFGGGTKVEIK
B2: humanized IPN002 variant VH2/Vk3 (antibody, V domains shown)
VH: B1 VH
VL: B1 VL with T90V
B3: VH3/Vk2 (antibody, V domains shown)
VH: B1 VH with H3Q
VL: B1 VL
notes: member of the group m7; also called humanized IPN002 variant VH3/Vk2
B4: VH1/Vk1 (antibody, V domains shown)
VH: B1 VH with N84S, R87K, A88S, T112S
VL: B1 VL with V3L
notes: member of the group m7; also called humanized IPN002 variant VH1/Vk1
B5: VH3/Vk3 (antibody, V domains shown)
VH: B1 VH with H3Q
VL: B1 VL with T90V
notes: member of the group m7; also called humanized IPN002 variant VH3/Vk3
B6: VH3/Vk4 (antibody, V domains shown)
VH: B1 VH with H3Q
VL: B1 VL with V53I, T90V
notes: member of the group m7; also called humanized IPN002 variant VH3/Vk4
B7: VH1/Vk3 (antibody, V domains shown)
VH: B1 VH with N84S, R87K, A88S, T112S
VL: B1 VL with T90V
notes: member of the group m7; also called humanized IPN002 variant VH1/Vk3
B8: VH1/Vk4 (antibody, V domains shown)
VH: B1 VH with N84S, R87K, A88S, T112S
VL: B1 VL with V53I, T90V
notes: member of the group m7; also called humanized IPN002 variant VH1/Vk4
B9: VH3/Vk1 (antibody, V domains shown)
VH: B1 VH with H3Q
VL: B1 VL with V3L
notes: member of the group m7; also called humanized IPN002 variant VH3/Vk1
B10: VH1/Vk2 (antibody, V domains shown)
VH: B1 VH with N84S, R87K, A88S, T112S
VL: B1 VL
notes: member of the group m7; also called humanized IPN002 variant VH1/Vk2
B11: VH4/Vk2 (antibody, V domains shown)
VH: B1 VH with H3Q, S97A
VL: B1 VL
notes: member of the group m7; also called humanized IPN002 variant VH4/Vk2
B12: VH4/Vk4 (antibody, V domains shown)
VH: B1 VH with H3Q, S97A
VL: B1 VL with V53I, T90V
notes: member of the group m7; also called humanized IPN002 variant VH4/Vk4
B13: VH4/Vk3 (antibody, V domains shown)
VH: B1 VH with H3Q, S97A
VL: B1 VL with T90V
notes: member of the group m7; also called humanized IPN002 variant VH4/Vk3
B14: humanized IPN002 variant VH2/Vk1 (antibody, V domains shown)
VH: B1 VH
VL: B1 VL with V3L
B15: VH2/Vk4 (antibody, V domains shown)
VH: B1 VH
VL: B1 VL with V53I, T90V
notes: member of the group m7; also called humanized IPN002 variant VH2/Vk4
B16: VH4/Vk1 (antibody, V domains shown)
VH: B1 VH with H3Q, S97A
VL: B1 VL with V3L
notes: member of the group m7; also called humanized IPN002 variant VH4/Vk1
B17: IPN002 (antibody, V domains shown)
VH: B1 VH with R19K, A40T, G42D, G44R, R67Q, N84S, R87K, A88S, T112S
VL: B1 VL with V3L, S7T, T14S, Q17D, P18Q, Q50K, V88L, V109L
notes: It is the murine parental antibody; also called IPN2; IPN-2

In patent US20160122421A1 (IPIERIAN, published 2016) one finds Kd, koff and kon data, which are given here for 17 molecules.

One may read the Kd as the constant that tells how readily two partners part at equilibrium. Usually koff stands for the first-order rate constant of dissociation. One may read the kon as the rate constant with which the complex forms.

Positions count from the first letter of the chain named.

The target in one test is T1, eTau-4 peptide. Nature of the test: relative binding affinity, method not named (Table 4); sixth column, headed eTau 4.
Consider B1, for which the dissociation constant (Kd) came to 0.394 nM.
For the molecule B2, binding was put at a Kd of 0.411 nM.
Still for that read-out and setting: the same measure for B3: 0.701 nM.
As for B4, binding was put at a Kd of 0.577 nM.
In turn, B5 came in with a Kd of 0.665 nM.
The molecule B6 returned a Kd of 0.586 nM.
Take B7: the Kd was found to be 0.761 nM.
Same read-out and setting: the same measure for B8: 0.869 nM; for B9: 0.921 nM; for B10: 0.633 nM.
Take B11: the equilibrium dissociation constant (Kd) was determined as 0.467 nM.
Still for that read-out and setting: the same measure for B12: 1.03 nM; for B13: 0.629 nM.
B14: the affinity, expressed as Kd, was 0.321 nM.
On the same count and under the same terms, the value for B15 was 0.671 nM; that for B16 was 0.498 nM.

Another test has as its target eTau1a (amino acids 2-166 of fetal tau) (Homo sapiens (Human), UniProt P10636 2-541). Nature of the test: relative binding affinity, method not named (Table 4).
B1: binding was put at a Kd of 0.327 nM.
Take B2: the Kd turned out to be 0.327 nM.
Turning to B3, the Kd is 0.282 nM.
Still for that read-out and setting: the same measure for B4: 0.294 nM; for B5: 0.22 nM.
On the same count and under the same terms, the value for B6 was 0.216 nM; that for B7 was 0.291 nM; that for B8 was 0.252 nM.
On to B9, for which binding was characterised by a dissociation constant (Kd) of 0.241 nM.
On the same count and under the same terms, the value for B10 was 0.212 nM; that for B11 was 0.191 nM.
Regarding B12, the Kd was 0.325 nM.
The same measure, in the same setting: the value for B13 was 0.178 nM; that for B14 was 0.281 nM.
Molecule B15 yielded a Kd of 0.343 nM.
The same measure, in the same setting: the same measure for B16: 0.198 nM.

A further test addresses T2, eTau 1b. The description is as above.
Regarding B1, the Kd came to 0.229 nM.
Consider B2, for which the dissociation constant (Kd) worked out at 0.287 nM.
Still for that read-out and setting: the same measure for B3: 0.614 nM; for B4: 0.737 nM; for B5: 0.689 nM.
Same read-out and setting: the same measure for B6: 0.382 nM.
The same measure, in the same setting: the value for B7 was 0.59 nM; that for B8 was 0.597 nM.
As to B9, the Kd was found to be 0.529 nM.
B10 had a Kd of 0.558 nM.
Still for that read-out and setting: the value for B11 was 0.483 nM; that for B12 was 0.535 nM; that for B13 was 0.313 nM.
Same read-out and setting: the same measure for B14: 0.215 nM.
B15 displayed a Kd of 0.52 nM.
For B16, the Kd is 0.359 nM.

In another test the target is T4, 383 amino acid recombinant tau (UniProt P10636-6 1-383, biotinylated where printed as biotin-rTau383 (position not given)).
T4 construct: also called rTau383
T4 sequence (P10636 other isoform, or with tags, fused parts or gaps limits assumed): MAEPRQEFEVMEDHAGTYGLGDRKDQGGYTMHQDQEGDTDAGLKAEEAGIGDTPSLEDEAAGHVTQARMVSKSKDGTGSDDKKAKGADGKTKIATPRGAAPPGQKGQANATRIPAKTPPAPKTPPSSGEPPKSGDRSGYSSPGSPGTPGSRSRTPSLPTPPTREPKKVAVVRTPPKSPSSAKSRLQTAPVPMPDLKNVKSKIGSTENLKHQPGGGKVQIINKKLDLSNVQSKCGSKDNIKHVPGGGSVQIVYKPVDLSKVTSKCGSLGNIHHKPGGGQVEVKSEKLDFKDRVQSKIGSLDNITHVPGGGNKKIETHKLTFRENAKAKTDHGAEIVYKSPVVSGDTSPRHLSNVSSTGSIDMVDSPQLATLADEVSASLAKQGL
Described as above.
B1: the Kd is 0.199 nM.
For B2, the Kd is 0.223 nM.
With B3, the Kd came out at 0.258 nM.
Same read-out and setting: the same measure for B4: 0.183 nM; for B5: 0.224 nM.
Take B6: the equilibrium dissociation constant (Kd) came to 0.255 nM.
The same measure, in the same setting: the same measure for B7: 0.175 nM.
With B8, the Kd came to 0.286 nM.
Still for that read-out and setting: the same measure for B9: 0.236 nM.
With B10, the dissociation constant (Kd) amounted to 0.121 nM.
The same measure, in the same setting: the value for B11 was 0.16 nM; that for B12 was 0.379 nM; that for B13 was 0.276 nM.
Still for that read-out and setting: the same measure for B14: 0.242 nM; for B15: 0.248 nM; for B16: 0.187 nM.

In another test the target is T3, eTau 2. The description is as above.
The molecule B1 yielded a Kd of 0.283 nM.
Molecule B2 displayed an equilibrium dissociation constant (Kd) of 0.261 nM.
For B3, binding was characterised by a dissociation constant (Kd) of 0.408 nM.
Same read-out and setting: the same measure for B4: 0.465 nM; for B5: 0.471 nM; for B6: 0.447 nM.
Same read-out and setting: the value for B7 was 0.444 nM; that for B8 was 0.427 nM; that for B9 was 0.705 nM.
As to B10, the Kd came to 0.361 nM.
Same read-out and setting: the same measure for B11: 0.451 nM; for B12: 0.564 nM; for B13: 0.473 nM.
In the case of B14, the Kd is 0.225 nM.
The same measure, in the same setting: the same measure for B15: 0.354 nM.
On the same count and under the same terms, the same measure for B16: 0.405 nM.

A further test has as its target eTau 4 (FIG. 17). The experiment in a line: relative binding affinity, method not named (Table 4); fifth column, headed eTau 4.
For the molecule B1, the affinity, expressed as Kd, was 0.294 nM.
B2 gave a Kd of 0.219 nM.
For the molecule B3, binding was put at a Kd of 0.589 nM.
For B4, the dissociation constant Kd stood at 0.358 nM.
Same read-out and setting: the value for B5 was 0.469 nM; that for B6 was 0.381 nM.
Molecule B7 came in with a dissociation constant Kd of 0.478 nM.
On the same count and under the same terms, the value for B8 was 0.269 nM; that for B9 was 0.454 nM; that for B10 was 0.321 nM.
Still for that read-out and setting: the value for B11 was 0.291 nM.
On the same count and under the same terms, the value for B12 was 0.462 nM.
B13 yielded a Kd of 0.636 nM.
Still for that read-out and setting: the value for B14 was 0.369 nM; that for B15 was 0.418 nM.
The same measure, in the same setting: the value for B16 was 0.28 nM.

In another test the target is T4, 383 amino acid recombinant tau. Nature of the test: Octet. Background: In BLI a coated tip is dipped into the sample, and binding shifts an interference pattern.
B1: the dissociation constant Kd amounted to 0.232 nM, the koff was 4.75e-05 s⁻¹ and the kon stood at 205000 M⁻¹ s⁻¹.
As for B17, the Kd came to 0.206 nM, the koff was determined as 4.78e-05 s⁻¹ and the kon was determined as 233000 M⁻¹ s⁻¹.
B2: the Kd came out at 1.73 nM, the koff is 0.000232 s⁻¹ and the kon turned out to be 134000 M⁻¹ s⁻¹.
Taken in the same sequence, the figures for B3 were 0.577 nM, 0.000107 s⁻¹ and 185000 M⁻¹ s⁻¹.
Taken in the same sequence, the figures for B4 were 0.0426 nM, 8.75e-06 s⁻¹ and 206000 M⁻¹ s⁻¹.
Taken in the same sequence, the figures for B5 were 0.169 nM, 3.15e-05 s⁻¹ and 187000 M⁻¹ s⁻¹.
As to B6, the Kd was 0.475 nM, the koff is 0.0001 s⁻¹ and the on-rate constant (kon) came out at 211000 M⁻¹ s⁻¹.
For the molecule B7, the equilibrium dissociation constant (Kd) was 1.28 nM, the off-rate (koff) came to 0.000233 s⁻¹ and the kon worked out at 182000 M⁻¹ s⁻¹.
Turning to B8, the Kd turned out to be 0.571 nM, the koff was determined as 9.52e-05 s⁻¹ and the kon was found to be 167000 M⁻¹ s⁻¹.
B9: the Kd was 1.99 nM, the koff turned out to be 0.000257 s⁻¹ and the kon came to 129000 M⁻¹ s⁻¹.
Consider B10, for which the Kd was 0.446 nM, the koff was found to be 8.74e-05 s⁻¹ and the kon is 196000 M⁻¹ s⁻¹.
For B11, the Kd came out at 1.88 nM, the koff is 0.000307 s⁻¹ and the kon is 163000 M⁻¹ s⁻¹.
Taken in the same sequence, the figures for B12 were 0.812 nM, 0.000126 s⁻¹ and 156000 M⁻¹ s⁻¹.
For the molecule B13, the Kd was 0.571 nM, the koff amounted to 9.39e-05 s⁻¹ and the kon came out at 164000 M⁻¹ s⁻¹.
As for B15, the Kd stood at 1.66 nM, the off-rate (koff) came out at 0.000236 s⁻¹ and the kon stood at 142000 M⁻¹ s⁻¹.
The corresponding values for B16 are 2.12 nM, 0.000297 s⁻¹ and 140000 M⁻¹ s⁻¹.
